{
  "source": "patent US7867500B2",
  "about": "“Cofactor that modulates steroid receptor activities” (The United States of America as represented by the …, priority 2004, dated 2011)",
  "molecules": {"B1": {"name": "STAMP: SRC-1 and TIF2 Associated Modulatory Protein, 1277 amino acid human polypeptide, expressed from transfected plasmid (protein)", "chain": "MARDLEETASSSEDEEVISQEDHPCIMWTGGCRRIPVLVFHADAILTKDNNIRVIGERYHLSYKIVRTDSRLVRSILTAHGFHEVHPSSTDYNLMWTGSHLKPFLLRTLSEAQKVNHFPRSYELTRKDRLYKNIIRMQHTHGFKVFHILPQTFLLPAEYAEFCNSYSKDRGPWIVKPVASSRGRGVYLINNPNQISLEENILVSRYINNPLLIDDFKFDVRLYVLVTSYDPLVIYLYEEGLARFATVRYDQGAKNIRNQFMHLTNYSVNKKSGDYVSCDDPEVEDYGNKWSMSAMLRYLKQEGRDTTALMAHVEDLIIKTIISAELAIATACKTFVPHRSSCFELYGFDVLIDSTLKPWLLEVNLSPSLACDAPLDLKIKASMISDMFTVVGFVCQDPAQRASTRPIYPTFESSRRNPFQKPQRCRPLSASDAEMKNLVGSAREKGPGKLGGSVLGLSMEEIKVLRRVKEENDRRGGFIRIFPTSETWEIYGSYLEHKTSMNYMLATRLFQDRMTADGAPELKIESLNSKAKLHAALYERKLLSLEVRKRRRRSSRLRAMRPKYPVITQPAEMNVKTETESEEEEEVALDNEDEEQEASQEESAGFLRENQAKYTPSLTALVENTPKENSMKVREWNNKGGHCCKLETQELEPKFNLMQILQDNGNLSKMQARIAFSAYLQHVQIRLMKDSGGQTFSASWAAKEDEQMELVVRFLKRASNNLQHSLRMVLPSRRLALLERRRILAHQLGDFIIVYNKETEQMAEKKSKKKVEEEEEDGVNMENFQEFIRQASEAELEEVLTFYTQKNKSASVFLGTHSKISKNNNNYSDSGAKGDHPETIMEEVKIKPPKQQQTTEIHSDKLSRFTTSAEKEAKLVYSNSSSGPTATLQKIPNTHLSSVTTSDLSPGPCHHSSLSQIPSAIPSMPHQPTILLNTVSASASPCLHPGAQNIPSPTGLPRCRSGSHTIGPFSSFQSAAHIYSQKLSRPSSAKAGSCYLNKHHSGIAKTQKEGEDASLYSKRYNQSMVTAELQRLAEKQAARQYSPSSHINLLTQQVTNLNLATGIINRSSASAPPTLRPIISPSGPTWSTQSDPQAPENHSSSPGSRSLQTGGFAWEGEVENNVYSQATGVVPQHKYHPTAGSYQLQFALQQLEQQKLQSRQLLDQSRARHQAIFGSQTLPNSNLWTMNNGAGCRISSATASGQKPTTLPQKVVPPPSSCASLVPKPPPNHEQVLRRATSQKASKGSSAEGQLNGLQSSLNPAASVPITSSTDPAHTKI"}},
  "key": {"[1]": {"target": "T1, glucocorticoid receptor (GR) (Rattus norvegicus, UniProt P06536)", "T1 sequence (P06536 1-795)": "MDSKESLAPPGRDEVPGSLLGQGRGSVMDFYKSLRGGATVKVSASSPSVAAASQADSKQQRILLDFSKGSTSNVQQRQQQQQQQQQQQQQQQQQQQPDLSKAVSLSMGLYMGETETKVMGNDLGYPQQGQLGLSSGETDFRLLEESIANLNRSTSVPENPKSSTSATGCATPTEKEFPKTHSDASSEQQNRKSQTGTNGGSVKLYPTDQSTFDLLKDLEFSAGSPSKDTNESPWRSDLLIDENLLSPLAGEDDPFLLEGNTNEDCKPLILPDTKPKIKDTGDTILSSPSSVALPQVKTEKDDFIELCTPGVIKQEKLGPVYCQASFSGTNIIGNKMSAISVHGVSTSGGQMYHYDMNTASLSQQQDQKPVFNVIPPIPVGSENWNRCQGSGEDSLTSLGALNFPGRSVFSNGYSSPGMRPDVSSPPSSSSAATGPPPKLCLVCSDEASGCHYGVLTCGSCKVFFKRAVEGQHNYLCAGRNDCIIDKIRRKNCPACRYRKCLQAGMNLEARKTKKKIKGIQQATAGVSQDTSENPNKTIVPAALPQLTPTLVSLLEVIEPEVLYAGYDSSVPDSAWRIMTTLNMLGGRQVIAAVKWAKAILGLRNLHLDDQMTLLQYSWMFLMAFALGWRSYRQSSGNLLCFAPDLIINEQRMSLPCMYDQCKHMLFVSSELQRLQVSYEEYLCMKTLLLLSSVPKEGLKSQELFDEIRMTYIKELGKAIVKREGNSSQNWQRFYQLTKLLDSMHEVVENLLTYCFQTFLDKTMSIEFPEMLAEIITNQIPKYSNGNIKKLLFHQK", "experiment": "GR-mediated induction of GREtkLUC reporter, transient transfection of CV-1 cells", "protocol": "Triplicate samples of CV-1 cells were transiently transfected with GR (6 ng)±TIF2 (20 ng)±STAMP (160 ng) plasmids, GREtkLUC reporter, and Renilla control plasmid. […] FIG. 4B illustrates the fold changes in GR induction parameters by STAMP and TIF2. […] The fold-increase in each parameter was determined as follows: for EC50s, fold increase=[EC50]GR/[EC50]GR+factor; for partial agonist activity and fold Dex induction, fold increase=activityGR+factor/activityGR). The average fold increases were then plotted±S.E.M (n=4).\nCV-1 cells were transiently transfected with GR (6 ng)±TIF2 (20 ng)±STAMP (160 ng) plasmids, GREtkLUC reporter, and Renilla control plasmid, and induced with ethanol± the indicated concentrations of Dex.\nTests were run to determine whether exogenous STAMP can modulate the EC50 of glucocorticoids and the partial agonist activity of antiglucocorticoids in the transient transfection assays where GR induced gene expression from a GREtkLUC reporter."}, "coll3 promoter": {"system": "coll3 promoter", "experiment": "ChIP assay on the endogenous coll3 promoter in U2OS.rGR cells", "assay_type": "cell-based", "conditions": "1 μM Dex, after 20 min of steroid treatment; HA/STAMP", "method": "FIG. 5C illustrates that STAMP and GR are co-localized on the promoter of an endogenous regulated gene as detected by chromatin immunoprecipitation (ChIP) assays. U2OS.rGR cells were treated with 1 μM Dex and then processed after 0 to 80 min as described in Example 1. The binding of GR and STAMP to the coll3 promoter was determined by the ability of PCR to amplify coll3 promoter sequences in the DNA that had been co-immunoprecipitated by anti-GR and anti-HA (to immobilize HA/STAMP) antibodies, respectively (upper panel). […] Similar results were obtained in two additional experiments.\nThe basic method of Ma et al. (Ma et al. (2003) Methods Enzymol. 364: […], was used with modifications. Two days before harvest, U2OS.rGR cells were seeded into 150 mm dishes at 3,000,000 cells per dish in phenol-red free medium with 10% charcoal/dextran-stripped fetal bovine serum. Each dish was transfected on the next day with 15 μg HA-STAMP and 60 μl Liopfectamine. On the third day, after brief ligand treatment, formaldehyde (37%) was added directly into the medium to a final concentration of 1% (37° C., 10 min), which was followed by glycine to a final concentration of 0.125 M (room temperature, 5 min with shaking). Cells were washed with (4° C.) cold PBS twice and harvested by scraping into 5 ml of cold (4° C.) PBS with a protease inhibitor cocktail (Roche). […]"}},
  "data": [
    {"molecule": "B1", "values": [
      {"measurement": "increase in the partial agonist activity of the antagonist Dex-Mes", "setting": "[1]; STAMP alone, no exogenous coactivators, low GR, 1 μM Dex-Mes, S.E.M., n=6, P=0.023", "value": "1.16±0.05", "unit": "fold"},
      {"measurement": "shift in the dose-response curve to lower steroid concentrations", "setting": "[1]; STAMP alone, no exogenous coactivators, low GR, Dex, S.E.M., n=6, P=0.0074", "value": "1.54±0.12", "unit": "fold"},
      {"measurement": "fold induction by 1 μM Dex, fold increase", "setting": "[1]; STAMP alone, S.E.M., n=6", "value": "0.93±0.08", "unit": "fold"},
      {"measurement": "total amount of gene product induced by 1 μM Dex, fold increase", "setting": "[1]; STAMP alone, S.E.M., n=6", "value": "1.26±0.05", "unit": "fold"},
      {"measurement": "fold induction (above basal activity) with 1 μM Dex", "setting": "[1]; both with and without added TIF2 (FIG. 4B)", "value": "increases the fold induction"},
      {"measurement": "localization on the coll3 promoter", "setting": "coll3 promoter", "value": "induced to localize on the coll3 promoter"}
    ]}
  ]
}
